{
  "source": "patent US20090214547A1",
  "about": "(published 2009)",
  "binders": {"B1": {"name": "26-5F12.1 (antibody, V domains shown)", "VH": "VKLQESGAEVKKPGASVKVSCTASGYIFTSYAIHWVRQAPGQRLEWMGWINAGYGNTKYSQKFQGRVSITRDKSASTAYMELSSLRSEDTAVYYCARRGQQLAFDYWGQGTTVTVSS", "VL": "not shown", "notes": "also called PdB26-5F12.1"}},
  "molecular_target": "T1, Pneumolysin, 57 kDa (full length w/His-tag) (Streptococcus pneumoniae, UniProt Q04IN8 2-471)",
  "T1 construct": "also called Antigen; PLY",
  "T1 sequence (Q04IN8 2-471)": "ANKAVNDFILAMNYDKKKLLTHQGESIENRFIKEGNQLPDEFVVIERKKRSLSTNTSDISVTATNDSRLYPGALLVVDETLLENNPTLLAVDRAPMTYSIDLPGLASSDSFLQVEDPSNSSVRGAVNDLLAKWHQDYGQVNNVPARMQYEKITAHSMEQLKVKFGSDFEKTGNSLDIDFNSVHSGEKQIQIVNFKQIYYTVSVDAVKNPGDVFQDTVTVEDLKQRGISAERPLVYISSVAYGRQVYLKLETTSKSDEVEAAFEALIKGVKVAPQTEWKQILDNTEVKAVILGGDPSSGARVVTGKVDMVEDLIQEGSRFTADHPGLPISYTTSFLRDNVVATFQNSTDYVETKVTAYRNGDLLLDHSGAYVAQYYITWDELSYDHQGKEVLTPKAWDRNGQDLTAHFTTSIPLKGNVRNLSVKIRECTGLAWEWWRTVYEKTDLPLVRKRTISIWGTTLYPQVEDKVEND",
  "experiment": "SPR, Mab captured on Protein-G chip",
  "data": [
    {"binder": "B1", "values": [
      {"measurement": "Kd", "value": 820, "unit": "pM"},
      {"measurement": "koff", "value": 0.00043, "unit": "s⁻¹"},
      {"measurement": "kon", "value": 530000, "unit": "M⁻¹ s⁻¹"}
    ]}
  ]
}
